We go through 125 sequences from the supplement of paper PMC9112550, “Optimization of the antimicrobial peptide Bac7 by deep mutational scanning” (BMC Biology, 2022).

The test system of this data set is Escherichia coli TOP10. Kind of data set: shrunken log2 fold change of peptide-encoding DNA abundance (4.5 h post-induction vs induction); higher = less antimicrobial activity (less host growth inhibition). The note with it: time post-induction: 4.5 h; library: site-saturation at positions 5, 18, 19, 20.
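Note: peptides expressed intracellularly from a pBAD plasmid library in pooled LB shake-flask culture, induced with 0.3% L-arabinose, DNA abundance read by NGS, three biological replicates, DESeq2 with apeglm shrinkage.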

Consider RRIRGRPPRLPRPRPRPRSTPRP, for which the “shrunken log2 fold change” value came out at 0.978.
With RRIRGRPPRLPRPRPRPQTQPRP the figure was 2.07; with RRIRQRPPRLPRPRPRPSAAPRP, 0.486.
With RRIRCRPPRLPRPRPRPIPEPRP the figure was 0.00841; with RRIRVRPPRLPRPRPRPAIFPRP, 0.0175; with RRIRARPPRLPRPRPRPPLKPRP, 0.33.
As to RRIRFRPPRLPRPRPRPFCEPRP, the “shrunken log2 fold change” value is -0.124.
Consider RRIRIRPPRLPRPRPRPPHPPRP, for which the “shrunken log2 fold change” value stood at 0.154.
Under RRIRPRPPRLPRPRPRPNQGPRP stands -0.55; under RRIRWRPPRLPRPRPRPTTSPRP, 0.508; under RRIRCRPPRLPRPRPRPKLNPRP, -0.265.
With RRIRIRPPRLPRPRPRPGCRPRP the figure was 0.0314.
Regarding RRIRSRPPRLPRPRPRPVKFPRP, the “shrunken log2 fold change” value stood at 0.0903.
Take RRIRRRPPRLPRPRPRPNRMPRP: the “shrunken log2 fold change” value was -0.303.
With RRIRSRPPRLPRPRPRPVTYPRP the figure was -0.273; with RRIRQRPPRLPRPRPRPKSHPRP, -0.0261; with RRIRARPPRLPRPRPRPEWHPRP, 0.381.
As for RRIRSRPPRLPRPRPRPQIDPRP, the “shrunken log2 fold change” value was -0.0914.
Under RRIRIRPPRLPRPRPRPKASPRP stands -0.0616.
Under RRIRSRPPRLPRPRPRPETKPRP stands 0.187.
With RRIRRRPPRLPRPRPRPSCTPRP the figure was 0.0387; with RRIRHRPPRLPRPRPRPTMKPRP, -0.585; with RRIRRRPPRLPRPRPRPSWSPRP, -0.116.
In the case of RRIRFRPPRLPRPRPRPVERPRP, the “shrunken log2 fold change” value turned out to be 0.0308.
Under RRIRYRPPRLPRPRPRPHSIPRP stands -0.311.
On to RRIRRRPPRLPRPRPRPCDCPRP, for which the “shrunken log2 fold change” value was found to be 0.00422.
RRIRSRPPRLPRPRPRPSNDPRP: the “shrunken log2 fold change” value is -0.349.
Under RRIRTRPPRLPRPRPRPYPRPRP stands -0.0911; under RRIRSRPPRLPRPRPRPCIGPRP, -0.18.
With RRIRDRPPRLPRPRPRPCYMPRP, the “shrunken log2 fold change” value was -0.192.
With RRIRYRPPRLPRPRPRPHKVPRP the figure was -0.739; with RRIRTRPPRLPRPRPRPVIGPRP, 0.13; with RRIRIRPPRLPRPRPRPRKSPRP, -0.169.
Regarding RRIRERPPRLPRPRPRPVVLPRP, the “shrunken log2 fold change” value was -0.0819.
On to RRIRDRPPRLPRPRPRPVHTPRP, for which the “shrunken log2 fold change” value was -0.00587.
Under RRIRIRPPRLPRPRPRPPDIPRP stands -0.198; under RRIRYRPPRLPRPRPRPLWKPRP, -0.0695.
Under RRIRFRPPRLPRPRPRPEQIPRP stands 0.131; under RRIRDRPPRLPRPRPRPWWEPRP, 0.186.
As to RRIRCRPPRLPRPRPRPVPFPRP, the “shrunken log2 fold change” value is -0.132.
With RRIRPRPPRLPRPRPRPYSTPRP, the “shrunken log2 fold change” value was -0.729.
RRIRWRPPRLPRPRPRPYKPPRP: the “shrunken log2 fold change” value was -0.539.
Under RRIRTRPPRLPRPRPRPDTTPRP stands -0.0469; under RRIRPRPPRLPRPRPRPEPWPRP, 0.232; under RRIRYRPPRLPRPRPRPWPDPRP, -0.137.
On to RRIRFRPPRLPRPRPRPGACPRP, for which the “shrunken log2 fold change” value was -0.0223.
In the case of RRIRYRPPRLPRPRPRPSSWPRP, the “shrunken log2 fold change” value was -0.284.
Under RRIRDRPPRLPRPRPRPACSPRP stands 0.386.
For RRIRYRPPRLPRPRPRPSAFPRP, the “shrunken log2 fold change” value is -0.607.
Regarding RRIRNRPPRLPRPRPRPYDIPRP, the “shrunken log2 fold change” value was -0.0698.
Under RRIRTRPPRLPRPRPRPYHHPRP stands -0.59; under RRIRERPPRLPRPRPRPYCGPRP, -0.109; under RRIRERPPRLPRPRPRPQRAPRP, 0.254.
As to RRIRMRPPRLPRPRPRPQGGPRP, the “shrunken log2 fold change” value is 0.631.
With RRIRIRPPRLPRPRPRPWYPPRP the figure was -0.238.
Consider RRIRGRPPRLPRPRPRPIENPRP, for which the “shrunken log2 fold change” value was 0.745.
Under RRIRYRPPRLPRPRPRPIKFPRP stands -0.244; under RRIRARPPRLPRPRPRPQKVPRP, 0.0196.
As for RRIRFRPPRLPRPRPRPSFSPRP, the “shrunken log2 fold change” value is -0.702.
As for RRIRKRPPRLPRPRPRPQYAPRP, the “shrunken log2 fold change” value was found to be 0.0233.
With RRIRFRPPRLPRPRPRPWDQPRP, the “shrunken log2 fold change” value stood at 0.0971.
In the case of RRIRARPPRLPRPRPRPWEPPRP, the “shrunken log2 fold change” value was 0.18.
Under RRIRARPPRLPRPRPRPNQHPRP stands -0.124; under RRIRWRPPRLPRPRPRPIAEPRP, 0.00894; under RRIRQRPPRLPRPRPRPLFTPRP, -0.426.
Consider RRIRQRPPRLPRPRPRPEMRPRP, for which the “shrunken log2 fold change” value turned out to be 1.13.
Regarding RRIRWRPPRLPRPRPRPCCFPRP, the “shrunken log2 fold change” value is -0.0922.
Under RRIRSRPPRLPRPRPRPLSKPRP stands -0.0737; under RRIRTRPPRLPRPRPRPPVTPRP, 0.361.
Under RRIRLRPPRLPRPRPRPSICPRP stands -0.0314.
With RRIRDRPPRLPRPRPRPLFIPRP, the “shrunken log2 fold change” value is -0.184.
On to RRIRQRPPRLPRPRPRPDSWPRP, for which the “shrunken log2 fold change” value was 0.0403.
Under RRIRSRPPRLPRPRPRPRLRPRP stands 0.287; under RRIRQRPPRLPRPRPRPNGKPRP, -0.362; under RRIRQRPPRLPRPRPRPQGTPRP, 0.193.
Regarding RRIRFRPPRLPRPRPRPKIGPRP, the “shrunken log2 fold change” value is -0.0769.
On to RRIRKRPPRLPRPRPRPHKCPRP, for which the “shrunken log2 fold change” value is 2.12.
Under RRIRMRPPRLPRPRPRPEPMPRP stands 0.386; under RRIRWRPPRLPRPRPRPMHYPRP, -0.107; under RRIRQRPPRLPRPRPRPTQAPRP, 0.186.
With RRIRHRPPRLPRPRPRPSGDPRP, the “shrunken log2 fold change” value was -0.107.
Under RRIRPRPPRLPRPRPRPFGMPRP stands -0.749; under RRIRGRPPRLPRPRPRPDWPPRP, 0.566; under RRIRPRPPRLPRPRPRPIPWPRP, 0.00327.
Under RRIRNRPPRLPRPRPRPFLRPRP stands -0.0221; under RRIRQRPPRLPRPRPRPHMIPRP, -0.515.
On to RRIRARPPRLPRPRPRPDPCPRP, for which the “shrunken log2 fold change” value was found to be 0.428.
With RRIRIRPPRLPRPRPRPMIMPRP the figure was -0.615.
With RRIRGRPPRLPRPRPRPTPTPRP the figure was 0.98; with RRIRYRPPRLPRPRPRPMQPPRP, -0.0124; with RRIRWRPPRLPRPRPRPWTVPRP, -0.0123.
Take RRIRSRPPRLPRPRPRPGSQPRP: the “shrunken log2 fold change” value was -0.492.
With RRIRERPPRLPRPRPRPFTSPRP the figure was -0.209.
Consider RRIRCRPPRLPRPRPRPSDHPRP, for which the “shrunken log2 fold change” value is -0.714.
In the case of RRIRNRPPRLPRPRPRPRFFPRP, the “shrunken log2 fold change” value was -0.0927.
With RRIRWRPPRLPRPRPRPGRHPRP the figure was 0.458; with RRIRCRPPRLPRPRPRPDMYPRP, -0.561; with RRIRHRPPRLPRPRPRPICFPRP, -0.114.
Consider RRIRPRPPRLPRPRPRPYGSPRP, for which the “shrunken log2 fold change” value is -0.0157.
With RRIRGRPPRLPRPRPRPCPPPRP the figure was 0.284.
Under RRIRWRPPRLPRPRPRPDVLPRP stands -0.0113.
With RRIRGRPPRLPRPRPRPMKIPRP the figure was 0.533.
Turning to RRIRQRPPRLPRPRPRPSYSPRP, the “shrunken log2 fold change” value was -0.298.
RRIRMRPPRLPRPRPRPKNCPRP: the “shrunken log2 fold change” value is 0.0597.
Under RRIRERPPRLPRPRPRPSESPRP stands -0.577; under RRIRNRPPRLPRPRPRPQHAPRP, -0.0717; under RRIRSRPPRLPRPRPRPDQKPRP, -0.00231.
With RRIRERPPRLPRPRPRPVPLPRP, the “shrunken log2 fold change” value was -0.244.
With RRIRPRPPRLPRPRPRPYPVPRP the figure was -0.247; with RRIRNRPPRLPRPRPRPQMLPRP, -0.409.
As for RRIRQRPPRLPRPRPRPLYQPRP, the “shrunken log2 fold change” value was -0.185.
For the sequence RRIRFRPPRLPRPRPRPPRTPRP, the “shrunken log2 fold change” value was found to be 0.579.
Under RRIRDRPPRLPRPRPRPHVPPRP stands -0.076; under RRIRHRPPRLPRPRPRPQSNPRP, -0.288.
With RRIRGRPPRLPRPRPRPKIAPRP the figure was 0.386.
Under RRIRRRPPRLPRPRPRPSGTPRP stands 0.494; under RRIRNRPPRLPRPRPRPMWDPRP, -0.021; under RRIRFRPPRLPRPRPRPWGSPRP, -0.0689.
Turning to RRIRFRPPRLPRPRPRPSRAPRP, the “shrunken log2 fold change” value turned out to be 0.352.
Under RRIRYRPPRLPRPRPRPCVTPRP stands -0.000683.
With RRIRQRPPRLPRPRPRPCLCPRP the figure was -0.294; with RRIRMRPPRLPRPRPRPIQYPRP, 0.0408; with RRIRWRPPRLPRPRPRPTGKPRP, 0.294.
On to RRIRNRPPRLPRPRPRPKLVPRP, for which the “shrunken log2 fold change” value is 0.163.
Consider RRIRDRPPRLPRPRPRPYPKPRP, for which the “shrunken log2 fold change” value was -0.143.
